Reference: US20030229005A1

Columns and labels:
Assay in all cases: cell-based or functional assay
[1] = target: human Gelatinase-A (human) (UniProt P08253)
[2] = target: gelatinase B (UniProt P14780)
[3] = target: collagenase 1 (UniProt P03956)
Sequence of collagenase 1 (P03956 100-469 limits assumed): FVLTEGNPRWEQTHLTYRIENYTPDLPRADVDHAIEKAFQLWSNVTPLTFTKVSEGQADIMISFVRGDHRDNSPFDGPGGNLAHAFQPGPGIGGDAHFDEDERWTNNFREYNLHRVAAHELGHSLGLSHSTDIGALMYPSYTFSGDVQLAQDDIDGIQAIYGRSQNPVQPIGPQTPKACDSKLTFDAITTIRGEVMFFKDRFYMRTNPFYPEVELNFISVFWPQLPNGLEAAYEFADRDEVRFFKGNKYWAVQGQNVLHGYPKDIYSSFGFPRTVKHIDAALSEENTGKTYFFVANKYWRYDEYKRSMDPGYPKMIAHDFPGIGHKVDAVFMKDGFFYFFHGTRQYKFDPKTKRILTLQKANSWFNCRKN

Sequence of gelatinase B (P14780 107-707 limits assumed): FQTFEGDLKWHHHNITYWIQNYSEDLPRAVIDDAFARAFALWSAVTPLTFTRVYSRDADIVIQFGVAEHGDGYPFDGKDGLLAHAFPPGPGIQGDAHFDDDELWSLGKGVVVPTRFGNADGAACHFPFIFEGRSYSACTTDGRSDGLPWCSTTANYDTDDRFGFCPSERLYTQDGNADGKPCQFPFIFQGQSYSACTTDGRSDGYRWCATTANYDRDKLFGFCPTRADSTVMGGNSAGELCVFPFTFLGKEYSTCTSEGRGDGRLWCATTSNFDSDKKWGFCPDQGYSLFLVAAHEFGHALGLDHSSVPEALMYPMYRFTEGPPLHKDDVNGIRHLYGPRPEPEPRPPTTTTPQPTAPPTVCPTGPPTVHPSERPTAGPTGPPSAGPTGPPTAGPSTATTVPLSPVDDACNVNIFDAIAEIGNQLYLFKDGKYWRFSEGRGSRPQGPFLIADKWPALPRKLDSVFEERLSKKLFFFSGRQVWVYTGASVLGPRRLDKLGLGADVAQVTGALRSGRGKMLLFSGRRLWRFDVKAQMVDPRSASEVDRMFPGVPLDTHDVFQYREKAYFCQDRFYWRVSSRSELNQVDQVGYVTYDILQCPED
Sequence of human Gelatinase-A (human) (P08253 110-660 limits assumed): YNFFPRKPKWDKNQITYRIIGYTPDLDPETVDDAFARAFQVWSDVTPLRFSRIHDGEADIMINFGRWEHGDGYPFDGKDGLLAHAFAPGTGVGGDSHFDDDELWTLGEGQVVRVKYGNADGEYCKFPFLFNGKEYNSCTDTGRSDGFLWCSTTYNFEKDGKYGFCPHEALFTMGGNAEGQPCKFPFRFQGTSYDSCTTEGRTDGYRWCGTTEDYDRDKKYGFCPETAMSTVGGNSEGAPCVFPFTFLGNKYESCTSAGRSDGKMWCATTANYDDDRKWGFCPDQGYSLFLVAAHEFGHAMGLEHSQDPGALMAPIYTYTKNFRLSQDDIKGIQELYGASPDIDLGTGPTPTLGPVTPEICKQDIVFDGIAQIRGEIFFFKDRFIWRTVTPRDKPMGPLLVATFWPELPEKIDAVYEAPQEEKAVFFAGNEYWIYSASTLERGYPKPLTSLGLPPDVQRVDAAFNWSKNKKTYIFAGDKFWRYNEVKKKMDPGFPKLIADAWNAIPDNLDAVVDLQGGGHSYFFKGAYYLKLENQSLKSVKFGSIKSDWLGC

Average Percent Inhibition from 1.1 to 6.6 Hours, Type II Collagen 0.18 ug/ml [1]: 2%
Average Percent Inhibition from 1.1 to 6.6 Hours, Type II Collagen 0.54 ug/ml [1]: 6%
Average Percent Inhibition from 1.1 to 6.6 Hours, Type II Collagen 1.63 ug/ml [1]: -52%
Average Percent Inhibition from 1.1 to 6.6 Hours, Type II Collagen 4.89 ug/ml [1]: 32%
Average Percent Inhibition from 1.1 to 6.6 Hours, Type II Collagen 14.67 ug/ml [1]: 56%
Average Percent Inhibition from 1.1 to 6.6 Hours, Type II Collagen 44.00 ug/ml [1]: 83%
Average Percent Inhibition, 0.10-1.10 h, TypeIICOL 1.6 ug/ul [1]: -27%
Average Percent Inhibition, 0.10-1.10 h, TypeIICOL 4.9 ug/ul [1]: 37%
Average Percent Inhibition, 0.10-1.10 h, TypeIICOL 15 ug/ul [1]: 56%
Average Percent Inhibition, 0.10-1.10 h, TypeIICOL 44 ug/ul [1]: 58%
Average Percent Inhibition, 0.10-1.10 h, TypeIICOL .18 ug/ul [1]: 3%
Average Percent Inhibition, 0.10-1.10 h, TypeIICOL .55 ug/ul [1]: 2%
Average Percent Inhibition, 1.10-2.10 h, TypeIICOL 1.6 ug/ul [1]: 4%
Average Percent Inhibition, 1.10-2.10 h, TypeIICOL 4.9 ug/ul [1]: 43%
Average Percent Inhibition, 1.10-2.10 h, TypeIICOL 15 ug/ul [1]: 64%
Average Percent Inhibition, 1.10-2.10 h, TypeIICOL 44 ug/ul [1]: 78%
Average Percent Inhibition, 1.10-2.10 h, TypeIICOL .18 ug/ul [1]: 9%
Average Percent Inhibition, 1.10-2.10 h, TypeIICOL .55 ug/ul [1]: 11%
Average Percent Inhibition, 2.10-3.10 h, TypeIICOL 1.6 ug/ul [1]: -11%
Average Percent Inhibition, 2.10-3.10 h, TypeIICOL 4.9 ug/ul [1]: 46%
Average Percent Inhibition, 2.10-3.10 h, TypeIICOL 15 ug/ul [1]: 70%
Average Percent Inhibition, 2.10-3.10 h, TypeIICOL 44 ug/ul [1]: 86%
Average Percent Inhibition, 2.10-3.10 h, TypeIICOL .18 ug/ul [1]: 7%
Average Percent Inhibition, 2.10-3.10 h, TypeIICOL .55 ug/ul [1]: 12%
Average Percent Inhibition, 3.10-4.10 h, TypeIICOL 1.6 ug/ul [1]: -37%
Average Percent Inhibition, 3.10-4.10 h, TypeIICOL 4.9 ug/ul [1]: 37%
Average Percent Inhibition, 3.10-4.10 h, TypeIICOL 15 ug/ul [1]: 64%
Average Percent Inhibition, 3.10-4.10 h, TypeIICOL 44 ug/ul [1]: 87%
Average Percent Inhibition, 3.10-4.10 h, TypeIICOL .18 ug/ul [1]: 3%
Average Percent Inhibition, 3.10-4.10 h, TypeIICOL .55 ug/ul [1]: 8%
Average Percent Inhibition, 4.10-5.10 h, TypeIICOL 1.6 ug/ul [1]: -68%
Average Percent Inhibition, 4.10-5.10 h, TypeIICOL 4.9 ug/ul [1]: 27%
Average Percent Inhibition, 4.10-5.10 h, TypeIICOL 15 ug/ul [1]: 53%
Average Percent Inhibition, 4.10-5.10 h, TypeIICOL 44 ug/ul [1]: 85%
Average Percent Inhibition, 4.10-5.10 h, TypeIICOL .18 ug/ul [1]: 0%
Average Percent Inhibition, 4.10-5.10 h, TypeIICOL .55 ug/ul [1]: 4%
Average Percent Inhibition, 5.10-6.10 h, TypeIICOL 1.6 ug/ul [1]: -104%
Average Percent Inhibition, 5.10-6.10 h, TypeIICOL 4.9 ug/ul [1]: 19%
Average Percent Inhibition, 5.10-6.10 h, TypeIICOL 15 ug/ul [1]: 41%
Average Percent Inhibition, 5.10-6.10 h, TypeIICOL 44 ug/ul [1]: 82%
Average Percent Inhibition, 5.10-6.10 h, TypeIICOL .18 ug/ul [1]: -3%
Average Percent Inhibition, 5.10-6.10 h, TypeIICOL .55 ug/ul [1]: -1%
Average Percent Inhibition from 1.1 to 6.6 Hours, Type II Collagen 0.18 ug/ml [2]: 9%
Average Percent Inhibition from 1.1 to 6.6 Hours, Type II Collagen 0.54 ug/ml [2]: 9%
Average Percent Inhibition from 1.1 to 6.6 Hours, Type II Collagen 1.63 ug/ml [2]: 12%
Average Percent Inhibition from 1.1 to 6.6 Hours, Type II Collagen 4.89 ug/ml [2]: 38%
Average Percent Inhibition from 1.1 to 6.6 Hours, Type II Collagen 14.67 ug/ml [2]: 65%
Average Percent Inhibition from 1.1 to 6.6 Hours, Type II Collagen 44.00 ug/ml [2]: 84%
Average Percent Inhibition, 0.10-1.10 h, TypeIICOL 1.6 ug/ul [2]: -28%
Average Percent Inhibition, 0.10-1.10 h, TypeIICOL 4.9 ug/ul [2]: 35%
Average Percent Inhibition, 0.10-1.10 h, TypeIICOL 15 ug/ul [2]: 57%
Average Percent Inhibition, 0.10-1.10 h, TypeIICOL 44 ug/ul [2]: 41%
Average Percent Inhibition, 0.10-1.10 h, TypeIICOL .18 ug/ul [2]: 3%
Average Percent Inhibition, 0.10-1.10 h, TypeIICOL .55 ug/ul [2]: 3%
Average Percent Inhibition, 1.10-2.10 h, TypeIICOL 1.6 ug/ul [2]: 14%
Average Percent Inhibition, 1.10-2.10 h, TypeIICOL 4.9 ug/ul [2]: 43%
Average Percent Inhibition, 1.10-2.10 h, TypeIICOL 15 ug/ul [2]: 67%
Average Percent Inhibition, 1.10-2.10 h, TypeIICOL 44 ug/ul [2]: 82%
Average Percent Inhibition, 1.10-2.10 h, TypeIICOL .18 ug/ul [2]: 12%
Average Percent Inhibition, 1.10-2.10 h, TypeIICOL .55 ug/ul [2]: 10%
Average Percent Inhibition, 2.10-3.10 h, TypeIICOL 1.6 ug/ul [2]: 19%
Average Percent Inhibition, 2.10-3.10 h, TypeIICOL 4.9 ug/ul [2]: 47%
Average Percent Inhibition, 2.10-3.10 h, TypeIICOL 15 ug/ul [2]: 72%
Average Percent Inhibition, 2.10-3.10 h, TypeIICOL 44 ug/ul [2]: 87%
Average Percent Inhibition, 2.10-3.10 h, TypeIICOL .18 ug/ul [2]: 11%
Average Percent Inhibition, 2.10-3.10 h, TypeIICOL .55 ug/ul [2]: 12%
Average Percent Inhibition, 3.10-4.10 h, TypeIICOL 1.6 ug/ul [2]: 15%
Average Percent Inhibition, 3.10-4.10 h, TypeIICOL 4.9 ug/ul [2]: 41%
Average Percent Inhibition, 3.10-4.10 h, TypeIICOL 15 ug/ul [2]: 69%
Average Percent Inhibition, 3.10-4.10 h, TypeIICOL 44 ug/ul [2]: 87%
Average Percent Inhibition, 3.10-4.10 h, TypeIICOL .18 ug/ul [2]: 9%
Average Percent Inhibition, 3.10-4.10 h, TypeIICOL .55 ug/ul [2]: 10%
Average Percent Inhibition, 4.10-5.10 h, TypeIICOL 1.6 ug/ul [2]: 11%
Average Percent Inhibition, 4.10-5.10 h, TypeIICOL 4.9 ug/ul [2]: 35%
Average Percent Inhibition, 4.10-5.10 h, TypeIICOL 15 ug/ul [2]: 64%
Average Percent Inhibition, 4.10-5.10 h, TypeIICOL 44 ug/ul [2]: 85%
Average Percent Inhibition, 4.10-5.10 h, TypeIICOL .18 ug/ul [2]: 7%
Average Percent Inhibition, 4.10-5.10 h, TypeIICOL .55 ug/ul [2]: 8%
Average Percent Inhibition, 5.10-6.10 h, TypeIICOL 1.6 ug/ul [2]: 7%
Average Percent Inhibition, 5.10-6.10 h, TypeIICOL 4.9 ug/ul [2]: 30%
Average Percent Inhibition, 5.10-6.10 h, TypeIICOL 15 ug/ul [2]: 59%
Average Percent Inhibition, 5.10-6.10 h, TypeIICOL 44 ug/ul [2]: 83%
Average Percent Inhibition, 5.10-6.10 h, TypeIICOL .18 ug/ul [2]: 5%
Average Percent Inhibition, 5.10-6.10 h, TypeIICOL .55 ug/ul [2]: 6%
Average Percent Inhibition from 1.1 to 6.6 Hours, Type II Collagen 0.18 ug/ml [3]: 0%
Average Percent Inhibition from 1.1 to 6.6 Hours, Type II Collagen 0.54 ug/ml [3]: 3%
Average Percent Inhibition from 1.1 to 6.6 Hours, Type II Collagen 1.63 ug/ml [3]: 0%
Average Percent Inhibition from 1.1 to 6.6 Hours, Type II Collagen 4.89 ug/ml [3]: 2%
Average Percent Inhibition from 1.1 to 6.6 Hours, Type II Collagen 14.67 ug/ml [3]: 10%
Average Percent Inhibition from 1.1 to 6.6 Hours, Type II Collagen 44.00 ug/ml [3]: 15%
Average Percent Inhibition, 0.10-1.10 h, TypeIICOL 1.6 ug/ul [3]: 19%
Average Percent Inhibition, 0.10-1.10 h, TypeIICOL 4.9 ug/ul [3]: 37%
Average Percent Inhibition, 0.10-1.10 h, TypeIICOL 15 ug/ul [3]: 44%
Average Percent Inhibition, 0.10-1.10 h, TypeIICOL 44 ug/ul [3]: 50%
Average Percent Inhibition, 0.10-1.10 h, TypeIICOL .18 ug/ul [3]: 17%
Average Percent Inhibition, 0.10-1.10 h, TypeIICOL .55 ug/ul [3]: 15%
Average Percent Inhibition, 1.10-2.10 h, TypeIICOL 1.6 ug/ul [3]: 6%
Average Percent Inhibition, 1.10-2.10 h, TypeIICOL 4.9 ug/ul [3]: 13%
Average Percent Inhibition, 1.10-2.10 h, TypeIICOL 15 ug/ul [3]: 21%
Average Percent Inhibition, 1.10-2.10 h, TypeIICOL 44 ug/ul [3]: 29%
Average Percent Inhibition, 1.10-2.10 h, TypeIICOL .18 ug/ul [3]: 3%
Average Percent Inhibition, 1.10-2.10 h, TypeIICOL .55 ug/ul [3]: 6%
Average Percent Inhibition, 2.10-3.10 h, TypeIICOL 1.6 ug/ul [3]: 0%
Average Percent Inhibition, 2.10-3.10 h, TypeIICOL 4.9 ug/ul [3]: 3%
Average Percent Inhibition, 2.10-3.10 h, TypeIICOL 15 ug/ul [3]: 12%
Substance: bovine type II collagen (from UniProt P02459 182-1241)
